Measured values: the Human Domainome abundance scans (Beltran et al. 2025)
± gives the uncertainty stated by the source.

B1: Glucocorticoid receptor, residues 419 to 494; numbered along this chain, P04150 (parent)
chain: KLCLVCSDEASGCHYGVLTCGSCKVFFKRAVEGQHNYLCAGRNDCIIDKIRRKNCPACRYRKCLQAGMNLEARKTK

Variants of: B1
Assay: abundance fitness (aPCA) (normalised: wild type 0, dead -1); higher = more abundant; growth selection in yeast, the domain comes from the species named
Conditions: Homo sapiens

| Variant | abundance fitness |
| --- | --- |
| KLCLVCSDEASGCHYGVLTCGSCKVFFKRAVEGQHNYLCAGRNDCIIDKIRRKNCPACRYRKCLQAGMHLEARKTK | 0.028 ± 0.067 |
| KLCLVCSDEASGCHYGVLTCGSCKVFFKRAVEGQHNYLCAGRNDCIIDKIRRKNCPACRYRKCLQAGMALEARKTK | 0.006 ± 0.042 |
| KLCLVCSDEASGCHYGVLTCGSCKVFFKRAVEGQHNYLCAGRNDCIIDKIRRKNCPACRYRKCLQAGMFLEARKTK | -0.023 ± 0.062 |
| KLCLVCSDEASGCHYGVLTCGSCKVFFKRAVEGQHNYLCAGRNDCIIDKIRRKNCPACRYRKCLQAGMILEARKTK | -0.089 ± 0.081 |
| KLCLVCSDEASGCHYGVLTCGSCKVFFKRAVEGQHNYLCAGRNDCIIDKIRRKNCPACRYRKCLQAGMLLEARKTK | -0.11 ± 0.036 |
| KLCLVCSDEASGCHYGVLTCGSCKVFFKRAVEGQHNYLCAGRNDCIIDKIRRKNCPACRYRKCLQAGMGLEARKTK | -0.047 ± 0.039 |
| KLCLVCSDEASGCHYGVLTCGSCKVFFKRAVEGQHNYLCAGRNDCIIDKIRRKNCPACRYRKCLQAGMKLEARKTK | 0.001 ± 0.048 |
| KLCLVCSDEASGCHYGVLTCGSCKVFFKRAVEGQHNYLCAGRNDCIIDKIRRKNCPACRYRKCLQAGMELEARKTK | -0.02 ± 0.043 |
| KLCLVCSDEASGCHYGVLTCGSCKVFFKRAVEGQHNYLCAGRNDCIIDKIRRKNCPACRYRKCLQAGMDLEARKTK | -0.033 ± 0.07 |
| KLCLVCSDEASGCHYGVLTCGSCKVFFKRAVEGQHNYLCAGRNDCIIDKIRRKNCPACRYRKCLQARMNLEARKTK | -0.491 ± 0.055 |
| KLCLVCSDEASGCHYGVLTCGSCKVFFKRAVEGQHNYLCAGRNDCIIDKIRRKNCPACRYRKCLQAQMNLEARKTK | -0.371 ± 0.081 |
| KLCLVCSDEASGCHYGVLTCGSCKVFFKRAVEGQHNYLCAGRNDCIIDKIRRKNCPACRYRKCLQAWMNLEARKTK | -0.656 ± 0.092 |
| KLCLVCSDEASGCHYGVLTCGSCKVFFKRAVEGQHNYLCAGRNDCIIDKIRRKNCPACRYRKCLQAVMNLEARKTK | -0.583 ± 0.076 |
| KLCLVCSDEASGCHYGVLTCGSCKVFFKRAVEGQHNYLCAGRNDCIIDKIRRKNCPACRYRKCLQAYMNLEARKTK | -0.304 ± 0.16 |
| KLCLVCSDEASGCHYGVLTCGSCKVFFKRAVEGQHNYLCAGRNDCIIDKIRRKNCPACRYRKCLQAPMNLEARKTK | -0.904 ± 0.19 |
| KLCLVCSDEASGCHYGVLTCGSCKVFFKRAVEGQHNYLCAGRNDCIIDKIRRKNCPACRYRKCLQATMNLEARKTK | -0.51 ± 0.08 |
| KLCLVCSDEASGCHYGVLTCGSCKVFFKRAVEGQHNYLCAGRNDCIIDKIRRKNCPACRYRKCLQASMNLEARKTK | -0.516 ± 0.079 |
| KLCLVCSDEASGCHYGVLTCGSCKVFFKRAVEGQHNYLCAGRNDCIIDKIRRKNCPACRYRKCLQAGFNLEARKTK | -0.076 ± 0.065 |

| Variant | abundance fitness |
| --- | --- |
| KLCLVCSDEASGCHYGVLTCGSCKVFFKRAVEGQHNYLCAGRNDCIIDKIRRKNCPACRYRKCLQAGSNLEARKTK | -0.771 ± 0.092 |
| KLCLVCSDEASGCHYGVLTCGSCKVFFKRAVEGQHNYLCAGRNDCIIDKIRRKNCPACRYRKCLQAGLNLEARKTK | -0.133 ± 0.035 |
| KLCLVCSDEASGCHYGVLTCGSCKVFFKRAVEGQHNYLCAGRNDCIIDKIRRKNCPACRYRKCLQAGENLEARKTK | -0.529 ± 0.086 |
| KLCLVCSDEASGCHYGVLTCGSCKVFFKRAVEGQHNYLCAGRNDCIIDKIRRKNCPACRYRKCLQAGRNLEARKTK | -0.719 ± 0.059 |
| KLCLVCSDEASGCHYGVLTCGSCKVFFKRAVEGQHNYLCAGRNDCIIDKIRRKNCPACRYRKCLQAGANLEARKTK | -0.377 ± 0.06 |
| KLCLVCSDEASGCHYGVLTCGSCKVFFKRAVEGQHNYLCAGRNDCIIDKIRRKNCPACRYRKCLQAGQNLEARKTK | -0.999 ± 0.18 |
| KLCLVCSDEASGCHYGVLTCGSCKVFFKRAVEGQHNYLCAGRNDCIIDKIRRKNCPACRYRKCLQAGYNLEARKTK | -0.215 ± 0.085 |
| KLCLVCSDEASGCHYGVLTCGSCKVFFKRAVEGQHNYLCAGRNDCIIDKIRRKNCPACRYRKCLQAGKNLEARKTK | -0.632 ± 0.16 |
| KLCLVCSDEASGCHYGVLTCGSCKVFFKRAVEGQHNYLCAGRNDCIIDKIRRKNCPACRYRKCLQAGGNLEARKTK | -0.574 ± 0.055 |
| KLCLVCSDEASGCHYGVLTCGSCKVFFKRAVEGQHNYLCAGRNDCIIDKIRRKNCPACRYRKCLQAGVNLEARKTK | -0.472 ± 0.055 |
| KLCLVCSDEASGCHYGVLTCGSCKVFFKRAVEGQHNYLCAGRNDCIIDKIRRKNCPACRYRKCLQAGCNLEARKTK | -0.12 ± 0.06 |
| KLCLVCSDEASGCHYGVLTCGSCKVFFKRAVEGQHNYLCAGRNDCIIDKIRRKNCPACRYRKCLQAGINLEARKTK | -0.422 ± 0.17 |
| KLCLVCSDEASGCHYGVLTCGSCKVFFKRAVEGQHNYLCAGRNDCIIDKIRRKNCPACRYRKCLQAGTNLEARKTK | -0.595 ± 0.12 |
| KLCLVCSDEASGCHYGVLTCGSCKVFFKRAVEGQHNYLCAGRNDCIIDKIRRKNCPACRYRKCLQAGNNLEARKTK | -0.62 ± 0.45 |
| KLCLVCSDEASGCHYGVLTCGSCKVFFKRAVEGQHNYLCAGRNDCIIDKIRRKNCPACRYRKCLQAGHNLEARKTK | -0.551 ± 0.15 |
| KLCLVCSDEASGCHYGVLTCGSCKVFFKRAVEGQHNYLCAGRNDCIIDKIRRKNCPACRYRKCLQAGPNLEARKTK | -0.928 ± 0.14 |
| KLCLVCSDEASGCHYGVLTCGSCKVFFKRAVEGQHNYLCAGRNDCIIDKIRRKNCPACRYRKCLQAGDNLEARKTK | -0.768 ± 0.18 |
| KLCLVCSDEASGCHYGVLTCGSCKVFFKRAVEGQHNYLCAGRNDCIIDKIRRKNCPACRYRKCLQAGWNLEARKTK | -0.846 ± 0.1 |
